In IntAct's records for PubMed 31515488:

B1: Coiled-coil domain-containing protein 106 (Homo sapiens), Q9BWC9 (parent)
chain: MNDRSSRRRTMKDDETFEISIPFDEAPHLDPQIFYSLSPSRRNFEEPPEAASSALALMNSVKTQLHMALERNSWLQKRIEDLEEERDFLRCQLDKFISSARMEAEDHCRMKPGPRRMEGDSRGGAGGEASDPESAASSLSGASEEGSASERRRQKQKGGASRRRFGKPKARERQRVKDADGVLCRYKKILGTFQKLKSMSRAFEHHRVDRNTVALTTPIAELLIVAPEKLAEVGEFDPSKERLLEYSRRCFLALDDETLKKVQALKKSKLLLPITYRFKR
B2: Transcriptional repressor p66-beta (Homo sapiens), Q8WXI9 (parent)
chain: MDRMTEDALRLNLLKRSLDPADERDDVLAKRLKMEGHEAMERLKMLALLKRKDLANLEVPHELPTKQDGSGVKGYEEKLNGNLRPHGDNRTAGRPGKENINDEPVDMSARRSEPERGRLTPSPDIIVLSDNEASSPRSSSRMEERLKAANLEMFKGKGIEERQQLIKQLRDELRLEEARLVLLKKLRQSQLQKENVVQKTPVVQNAASIVQPSPAHVGQQGLSKLPSRPGAQGVEPQNLRTLQGHSVIRSATNTTLPHMLMSQRVIAPNPAQLQGQRGPPKPGLVRTTTPNMNPAINYQPQSSSSVPCQRTTSSAIYMNLASHIQPGTVNRVSSPLPSPSAMTDAANSQAAAKLALRKQLEKTLLEIPPPKPPAPLLHFLPSAANSEFIYMVGLEEVVQSVIDSQGKSCASLLRVEPFVCAQCRTDFTPHWKQEKNGKILCEQCMTSNQKKALKAEHTNRLKNAFVKALQQEQEIEQRLQQQAALSPTTAPAVSSVSKQETIMRHHTLRQAPQPQSSLQRGIPTSARSMLSNFAQAPQLSVPGGLLGMPGVNIAYLNTGIGGHKGPSLADRQREYLLDMIPPRSISQSISGQK
B3: Protein FAM200C (Homo sapiens), Q8IZ13 (parent)
chain: MSKKRKWDDDYVRYWFTCTTEVDGTQRPQCVLCNSVFSNADLRPSKLSDHFNRQHGGVAGHDLNSLKHMPAPSDQSETLKAFGVASHEDTLLQASYQFAYLCAKEKNPHTVAEKLVKPCALEIAQIVLGPDAQKKLQQVPLSDDVIHSRIDEMSQDILQQVLEDIKASPLKVGIQLAETTDMDDCSQLMAFVRYIKEREIVEEFLFCEPLQLSMKGIDVFNLFRDFFLKHKIALDVCGSVCTDGASSMLGENSEFVAYVKKEIPHIVVTHCLLNPHALVIKTLPTKLRDALFTVVRVINFIKGRAPNHRLFQAFFEEIGIEYSVLLFHTEMRWLSRGQILTHIFEMYEEINQFLHHKSSNLVDGFENKEFKIHLAYLADLFKHLNELSASMQRTGMNTVSAREKLSAFVRKFPFWQKRIEKRNFTNFPFLEEIIVSDNEGIFIAAEITLHLQQLSNFFHGYFSIGDLNEASKWILDPFLFNIDFVDDSYLMKNDLAELRASGQILMEFETMKLEDFWCAQFTAFPNLAKTALEILMPFATTYLCELGFSSLLHFKTKSRSCFNLSDDIRVAISKKVPRFSDIIEQKLQLQQKSL
B4: Zyxin (Homo sapiens), Q15942 (parent)
chain: MAAPRPSPAISVSVSAPAFYAPQKKFGPVVAPKPKVNPFRPGDSEPPPAPGAQRAQMGRVGEIPPPPPEDFPLPPPPLAGDGDDAEGALGGAFPPPPPPIEESFPPAPLEEEIFPSPPPPPEEEGGPEAPIPPPPQPREKVSSIDLEIDSLSSLLDDMTKNDPFKARVSSGYVPPPVATPFSSKSSTKPAAGGTAPLPPWKSPSSSQPLPQVPAPAQSQTQFHVQPQPQPKPQVQLHVQSQTQPVSLANTQPRGPPASSPAPAPKFSPVTPKFTPVASKFSPGAPGGSGSQPNQKLGHPEALSAGTGSPQPPSFTYAQQREKPRVQEKQHPVPPPAQNQNQVRSPGAPGPLTLKEVEELEQLTQQLMQDMEHPQRQNVAVNELCGRCHQPLARAQPAVRALGQLFHIACFTCHQCAQQLQGQQFYSLEGAPYCEGCYTDTLEKCNTCGEPITDRMLRATGKAYHPHCFTCVVCARPLEGTSFIVDQANRPHCVPDYHKQYAPRCSVCSEPIMPEPGRDETVRVVALDKNFHMKCYKCEDCGKPLSIEADDNGCFPLDGHVLCRKCHTARAQT
partner: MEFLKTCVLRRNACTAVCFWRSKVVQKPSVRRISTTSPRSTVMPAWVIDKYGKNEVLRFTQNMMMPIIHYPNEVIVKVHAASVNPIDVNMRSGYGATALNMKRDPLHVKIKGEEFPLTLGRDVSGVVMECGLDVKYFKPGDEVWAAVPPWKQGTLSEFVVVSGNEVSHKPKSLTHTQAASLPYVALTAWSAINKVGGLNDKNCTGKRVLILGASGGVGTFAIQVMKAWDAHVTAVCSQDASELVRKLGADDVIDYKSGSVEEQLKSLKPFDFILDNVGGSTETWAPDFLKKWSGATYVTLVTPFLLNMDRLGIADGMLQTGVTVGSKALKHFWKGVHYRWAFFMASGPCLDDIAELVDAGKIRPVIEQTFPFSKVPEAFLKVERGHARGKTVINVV
B5: Amphiphysin (Homo sapiens), P49418 (parent)
chain: MADIKTGIFAKNVQKRLNRAQEKVLQKLGKADETKDEQFEEYVQNFKRQEAEGTRLQRELRGYLAAIKGMQEASMKLTESLHEVYEPDWYGREDVKMVGEKCDVLWEDFHQKLVDGSLLTLDTYLGQFPDIKNRIAKRSRKLVDYDSARHHLEALQSSKRKDESRISKAEEEFQKAQKVFEEFNVDLQEELPSLWSRRVGFYVNTFKNVSSLEAKFHKEIAVLCHKLYEVMTKLGDQHADKAFTIQGAPSDSGPLRIAKTPSPPEEPSPLPSPTASPNHTLAPASPAPARPRSPSQTRKGPPVPPLPKVTPTKELQQENIISFFEDNFVPEISVTTPSQNEVPEVKKEETLLDLDFDPFKPEVTPAGSAGVTHSPMSQTLPWDLWTTSTDLVQPASGGSFNGFTQPQDTSLFTMQTDQSMICNLAESEQAPPTEPKAEEPLAAVTPAVGLDLGMDTRAEEPVEEAVIIPGADADAAVGTLVSAAEGAPGEEAEAEKATVPAGEGVSLEEAKIGTETTEGAESAQPEAEELEATVPQEKVIPSVVIEPASNHEEEGENEITIGAEPKETTEDAAPPGPTSETPELATEQKPIQDPQPTPSAPAMGAADQLASAREASQELPPGFLYKVETLHDFEAANSDELTLQRGDVVLVVPSDSEADQDAGWLVGVKESDWLQYRDLATYKGLFPENFTRRLD
partner: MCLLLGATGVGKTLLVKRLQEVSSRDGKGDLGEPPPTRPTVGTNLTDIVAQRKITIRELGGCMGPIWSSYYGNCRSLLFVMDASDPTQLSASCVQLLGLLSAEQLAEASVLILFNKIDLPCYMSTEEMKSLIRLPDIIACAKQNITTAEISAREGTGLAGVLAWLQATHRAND
B6: Ubiquitin-conjugating enzyme E2 E3 (Homo sapiens), Q969T4 (parent)
chain: MSSDRQRSDDESPSTSSGSSDADQRDPAAPEPEEQEERKPSATQQKKNTKLSSKTTAKLSTSAKRIQKELAEITLDPPPNCSAGPKGDNIYEWRSTILGPPGSVYEGGVFFLDITFSSDYPFKPPKVTFRTRIYHCNINSQGVICLDILKDNWSPALTISKVLLSICSLLTDCNPADPLVGSIATQYLTNRAEHDRIARQWTKRYAT
partner: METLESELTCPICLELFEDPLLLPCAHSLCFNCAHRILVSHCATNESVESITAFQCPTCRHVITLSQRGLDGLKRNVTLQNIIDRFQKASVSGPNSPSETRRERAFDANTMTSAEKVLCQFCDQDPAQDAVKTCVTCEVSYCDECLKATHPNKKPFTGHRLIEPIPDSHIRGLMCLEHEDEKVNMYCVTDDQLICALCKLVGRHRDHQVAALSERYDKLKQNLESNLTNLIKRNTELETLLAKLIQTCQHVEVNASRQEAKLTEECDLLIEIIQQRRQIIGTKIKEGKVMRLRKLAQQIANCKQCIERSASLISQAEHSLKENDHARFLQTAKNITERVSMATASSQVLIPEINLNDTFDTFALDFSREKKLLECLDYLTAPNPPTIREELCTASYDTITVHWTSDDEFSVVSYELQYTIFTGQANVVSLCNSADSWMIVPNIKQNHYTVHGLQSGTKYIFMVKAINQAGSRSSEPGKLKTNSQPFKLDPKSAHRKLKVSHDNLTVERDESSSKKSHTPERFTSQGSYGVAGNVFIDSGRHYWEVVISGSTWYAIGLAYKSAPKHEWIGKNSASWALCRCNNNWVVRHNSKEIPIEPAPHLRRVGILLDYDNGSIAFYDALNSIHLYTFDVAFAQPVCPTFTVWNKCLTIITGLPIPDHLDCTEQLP
B7: Phosphoserine phosphatase (Homo sapiens), P78330 (parent)
chain: MVSHSELRKLFYSADAVCFDVDSTVIREEGIDELAKICGVEDAVSEMTRRAMGGAVPFKAALTERLALIQPSREQVQRLIAEQPPHLTPGIRELVSRLQERNVQVFLISGGFRSIVEHVASKLNIPATNVFANRLKFYFNGEYAGFDETQPTAESGGKGKVIKLLKEKFHFKKIIMIGDGATDMEACPPADAFIGFGGNVIRQQVKDNAKWYITDFVELLGELEE
partner: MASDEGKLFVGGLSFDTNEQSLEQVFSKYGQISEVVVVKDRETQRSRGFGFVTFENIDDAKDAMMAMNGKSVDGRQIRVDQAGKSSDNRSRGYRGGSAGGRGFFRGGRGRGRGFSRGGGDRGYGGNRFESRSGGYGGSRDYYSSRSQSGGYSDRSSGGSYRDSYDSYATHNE
B8: Myogenin (Homo sapiens), P15173 (parent)
chain: MELYETSPYFYQEPRFYDGENYLPVHLQGFEPPGYERTELTLSPEAPGPLEDKGLGTPEHCPGQCLPWACKVCKRKSVSVDRRRAATLREKRRLKKVNEAFEALKRSTLLNPNQRLPKVEILRSAIQYIERLQALLSSLNQEERDLRYRGGGGPQPGVPSECSSHSASCSPEWGSALEFSANPGDHLLTADPTDAHNLHSLTSIVDSITVEDVSVAFPDETMPN
partner: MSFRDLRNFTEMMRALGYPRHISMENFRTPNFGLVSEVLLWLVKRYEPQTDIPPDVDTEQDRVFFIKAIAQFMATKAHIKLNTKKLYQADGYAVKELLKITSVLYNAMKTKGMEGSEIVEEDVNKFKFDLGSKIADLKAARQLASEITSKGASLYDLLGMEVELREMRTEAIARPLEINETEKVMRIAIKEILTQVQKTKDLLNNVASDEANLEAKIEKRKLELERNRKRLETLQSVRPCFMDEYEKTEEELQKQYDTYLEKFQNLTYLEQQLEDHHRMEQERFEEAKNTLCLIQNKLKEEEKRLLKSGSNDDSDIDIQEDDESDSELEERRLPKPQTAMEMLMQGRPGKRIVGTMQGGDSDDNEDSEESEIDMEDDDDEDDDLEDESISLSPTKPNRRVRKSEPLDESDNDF

Variants of: B1
Details: with atf4_human ATF4, P18848
Sequence of atf4_human ATF4, P18848 (P18848 whole entry): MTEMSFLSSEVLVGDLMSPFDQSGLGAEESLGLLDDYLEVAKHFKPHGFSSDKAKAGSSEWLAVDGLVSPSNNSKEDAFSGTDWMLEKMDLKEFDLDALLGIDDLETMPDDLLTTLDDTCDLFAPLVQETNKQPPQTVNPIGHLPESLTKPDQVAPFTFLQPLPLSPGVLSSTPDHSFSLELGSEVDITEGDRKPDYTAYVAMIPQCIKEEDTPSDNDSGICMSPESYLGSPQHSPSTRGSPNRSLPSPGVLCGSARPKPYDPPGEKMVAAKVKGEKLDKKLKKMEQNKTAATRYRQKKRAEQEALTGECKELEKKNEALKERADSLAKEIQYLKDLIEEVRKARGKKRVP

effect of a mutation on the interaction | Variant
with no effect | A54T

Variants of: B1
Details: with fam9b_human FAM9B

effect of a mutation on the interaction | Variant
with no effect | A54T

Variants of: B1
Details: with ptbp2_human PTBP2, Q9UKA9
Sequence of ptbp2_human PTBP2, Q9UKA9 (Q9UKA9 whole entry): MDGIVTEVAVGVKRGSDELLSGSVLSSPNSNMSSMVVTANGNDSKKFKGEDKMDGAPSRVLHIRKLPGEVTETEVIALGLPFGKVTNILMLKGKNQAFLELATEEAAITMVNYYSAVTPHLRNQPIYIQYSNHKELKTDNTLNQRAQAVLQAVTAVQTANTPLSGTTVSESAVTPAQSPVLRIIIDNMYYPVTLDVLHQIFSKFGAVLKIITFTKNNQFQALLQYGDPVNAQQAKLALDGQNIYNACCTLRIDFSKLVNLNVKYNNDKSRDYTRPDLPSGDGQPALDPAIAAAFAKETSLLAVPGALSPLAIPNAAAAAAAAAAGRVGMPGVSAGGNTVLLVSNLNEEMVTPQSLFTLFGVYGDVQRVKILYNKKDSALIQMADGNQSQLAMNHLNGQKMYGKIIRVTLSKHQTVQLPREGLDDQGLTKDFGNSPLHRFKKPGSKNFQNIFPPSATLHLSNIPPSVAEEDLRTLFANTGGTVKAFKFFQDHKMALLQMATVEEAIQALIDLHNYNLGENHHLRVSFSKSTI

effect of a mutation on the interaction | Variant
with no effect | A54T

Variants of: B2
Details: with traf1_human TRAF1, Q13077
Sequence of traf1_human TRAF1, Q13077 (Q13077 whole entry): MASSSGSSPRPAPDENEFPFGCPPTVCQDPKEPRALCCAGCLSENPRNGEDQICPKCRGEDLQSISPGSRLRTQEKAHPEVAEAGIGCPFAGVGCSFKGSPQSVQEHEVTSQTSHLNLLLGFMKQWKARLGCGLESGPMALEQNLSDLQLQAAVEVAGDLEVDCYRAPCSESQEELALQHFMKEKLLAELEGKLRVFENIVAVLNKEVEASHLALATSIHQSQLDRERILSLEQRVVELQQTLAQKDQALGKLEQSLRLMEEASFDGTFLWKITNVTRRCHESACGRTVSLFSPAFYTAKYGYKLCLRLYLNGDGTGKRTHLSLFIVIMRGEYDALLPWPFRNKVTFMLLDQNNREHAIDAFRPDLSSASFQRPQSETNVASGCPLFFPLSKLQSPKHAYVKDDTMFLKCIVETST

effect of a mutation on the interaction | Variant
with no effect | A490V

Variants of: B3
Details: with mt21a_human METTL21A

effect of a mutation on the interaction | Variant
disrupting interaction strength | M248K

Variants of: B4
Details: with rt4i1_human RTN4IP1, Q8WWV3

effect of a mutation on the interaction | Variant
with no effect | R563Q
with no effect | R489W

Variants of: B5
Details: with arl16_human ARL16, Q0P5N6

effect of a mutation on the interaction | Variant
with no effect | M376I

Variants of: B6
Details: with tri18_human MID1, O15344

effect of a mutation on the interaction | Variant
with no effect | S117T

Variants of: B7
Details: with cirbp_human CIRBP

effect of a mutation on the interaction | Variant
with no effect | T149M
with no effect | T152I

Variants of: B8
Details: with clua1_human CLUAP1, Q96AJ1

effect of a mutation on the interaction | Variant
with no effect | R147C
with no effect | P49H
